In patent US20230028110A1 (ADAPTATE BIOTHERAPEUTICS, published 2023):

What was measured:
[1] = biological target: T1, L1 (DV1-GV4), soluble human Vδ1/Vγ4 γδ TCR heterodimer in leucine zipper format (human); experiment: DELFIA, 100 nM biotinylated L1
T1 construct: Biotinylated in the DELFIA ranking; also called Antigen L1 (TRDV1/TRGV4); human DV1-GV4; not shown: gamma chain: Vγ4 (TRGV4) domain on a TCR constant region, leucine zipper, histidine tag

[2] = biological target: Vδ1 chain of the γδ TCR on human Vδ1 γδ T cells (human); experiment: cell-based or functional assay
[3] = biological target: T1, L1 (DV1-GV4), soluble human Vδ1/Vγ4 γδ …; experiment: SPR (Reichert 4SPR), antibody on Protein A chip, human Vδ1 antigen as analyte; average of two replicates on two instruments
From the text: The binding affinity of the antibodies to target (i.e. the Vδ1 chain of a γδ TCR) is established by SPR analysis using a Reichert 4SPR instrument (Reichert Technologies).
The binding interaction of Vδ1 and the affinity-matured mAbs were modelled according to Langmuir 1:1 binding.

[4] = biological target: T1, L1 (DV1-GV4), soluble human Vδ1/Vγ4 γδ …; experiment: DELFIA ELISA, human antigen; heat map cell of the clone
[5] = biological target: T2, Vδ1 chain of the γδ TCR on human Vδ1 γδ T cells (human); experiment: flow cytometry binding to Vδ1 γδ T cells, donor TS164; column head printed 'IC50', unit nM from the chart axis and FIG. 34D
T2 construct: whole, on cells; also called cell surface Vδ1 TCR; Vδ1-positive γδ T cells
T2 sequence (A0A1B0GX56 22-115, stated change not applied): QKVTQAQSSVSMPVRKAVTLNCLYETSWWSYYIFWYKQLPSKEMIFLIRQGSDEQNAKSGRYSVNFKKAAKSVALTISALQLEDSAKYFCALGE
Method: (§1) All incubation steps were performed at 4° C. and mAb binding was determined using flow cytometry to measure the median level of fluorescence. Logarithmic four parameter dose-response curves were fitted using GraphPad Prism 9. […] For Vδ1-positive γδ T cell, data is represented as the mean two donors.
(§2) A range of target cells were assayed to determine the specificity and affinity of Vδ1 mAb binding. This included expanded skin-derived Vδ1 γδ T-cells, HEK293T cells, Raji cells, and multiple leukocyte subsets within human primary blood mononuclear cells. Adherent or semi-adherent cells (skin-derived Vδ1 γδ T-cells, HEK293T) were detached from tissue culture flask and resuspended in PBS. Similarly, non-adherent cell types (Raji, PBMC), were harvested and resuspended in PBS. Cells were seeded at a final density of 100,000 cells per well in v-bottom 96-well plates. Cells underwent centrifugation and the cell pellets were resuspended in FcR blocking reagent according to the manufacturer's instructions, and incubated for 20 minutes at 4C prior to a further wash. […] To determine the quantity of mAb bound to the cell surface, the cells were then stained with a murine anti-human IgG secondary antibody, conjugated to APC (dilution: 1:100). For Vδ1 γδ T-cells, HEK293T and Raji, the cells were also stained solely with a viability dye.

[6] = biological target: T2, Vδ1 chain of the γδ TCR on human Vδ1 γδ …; experiment: flow cytometry binding to Vδ1 γδ T cells, donor ATS006; column head printed 'IC50', unit nM from the chart axis and FIG. 34D
Method: as §1, §2

T1 sequence (main, as listed by the source): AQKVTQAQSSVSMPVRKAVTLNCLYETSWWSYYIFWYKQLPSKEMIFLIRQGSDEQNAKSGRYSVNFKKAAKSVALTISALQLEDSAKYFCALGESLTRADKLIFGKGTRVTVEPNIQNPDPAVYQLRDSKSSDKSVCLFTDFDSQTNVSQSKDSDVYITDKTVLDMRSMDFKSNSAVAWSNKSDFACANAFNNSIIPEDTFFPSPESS

Row | Binder | DELFIA signal at 100 nM L1 [1] | ELISA signal (heat map) [4] | further results
1 | 1251_P02_C05 (antibody, IgG1, V domains shown, IgG1) VH: EVQLLESGGGLVQPGGSLRLSCAASGFTFSSYAMSWVRQAPGKGLEWVSAISGGGGTTYSSDSVKGRFTISRDNSKNTLYLQMNSLRAEDTAVYYCARDSGVAFDIWGQGTLVTVSS VL: DIQMTQSPSFLSASVGDRVTITCRASQNIRTWLAWYQQKPGRAPKLLIYDASSLESGVPSRFSGSGSGTDFTLTISSLQPEDFATYYCQQFKRYPPTFGLGTKVEIK | 65300 fluorescence units |  | 
2 | 1245_P01_E07 (antibody, IgG1, V domains shown, also called ADT1-7; parental ADT1-7) VH: QVQLVESGGGLVKPGGSLRLSCAASGFTFSDYYMSWIRQAPGKGLEWVSYISSSGSTIYYADSVKGRFTISRDNAKNSLYLQMNSLRAEDTAVYYCARVDYADAFDIWGQGTLVTVSS VL: DIQMTQSPSSLSASVGDRVTIACRAGQSIGTYLNWYQQKPGKAPKLLIYVASSLQSGVPSRFSGSGSGTEFTLTISSLQPEDFATYYCQQSYSTLLTFGRGTKVEIK | 163000 fluorescence units | 5470 | IC50 TCR DR (no THP-1) [2]: 22.4 nM; IC90 TCR DR (noTHP-1) [2]: 139 nM; Kd [3]: 38.1 nM; EC50 [5]: 226 nM; EC50 [6]: > 100 nM
3 | ADT1-7-22 (antibody, IgG1, V domains shown, IgG1) VH: EVQLVESGGGLVKPGGSLRLSCAASGFTFSDYYMSWIRQAPGKGLEWVSYISSSGSTIYYADSVKGRFTISRDNAKNSLYLQMNSLRAEDTAVYYCARDDYNDAFDIWGQGTLVTVSS VL: DIQMTQSPSSLSASVGDRVTIACRAGQSIGTYLNWYQQKPGKAPKLLIYVASSLQSGVPSRFSGSGSGTEFTLTISSLQPEDFATYYCQQSASELLTFGRGTKVEIK |  | 27800 | 
4 | 1138_P01_B09 (antibody, IgG1, V domains shown, IgG1) VH: EVQLLESGGGLVKPGGSLRLSCAASGFTFSDYYMSWIRQAPGKGLEWVSYISSSGSTIYYADSVKGRFTISRDNAKNSLYLQMNSLRAEDTAVYYCARHSWSDAFDIWGQGTLVTVSS VL: DIQMTQSPSSLSASVGDRVTITCQASQDISNYLNWYQQKPGKAPKLLIYDASNLETGVPSRFSGSGSGTDFTLTISSLQPEDFATYYCQQSYSTPLTFGGGTKVEIK | 29200 fluorescence units |  | 
5 | ADT1-7-20 (antibody, IgG1, V domains shown, IgG1) VH: EVQLVESGGGLVKPGGSLRLSCAASGFTFSDYYMSWIRQAPGKGLEWVSYISSSGSTIYYADSVKGRFTISRDNAKNSLYLQMNSLRAEDTAVYYCARVDYQEAFDIWGQGTLVTVSS VL: DIQMTQSPSSLSASVGDRVTIACRAGQSIGTYLNWYQQKPGKAPKLLIYVASSLQSGVPSRFSGSGSGTEFTLTISSLQPEDFATYYCQQSYSGLDTFGRGTKVEIK |  | 30800 | IC50 TCR DR (no THP-1) [2]: 0.164 nM; IC90 TCR DR (noTHP-1) [2]: 1.04 nM; Kd [3]: 4.99 nM; EC50 [5]: 2.68 nM; EC50 [6]: 37.2 nM
6 | ADT1-7-19 (antibody, IgG1, V domains shown, IgG1) VH: EVQLVESGGGLVKPGGSLRLSCAASGFTFSDYYMSWIRQAPGKGLEWVSYISSSGSTIYYADSVKGRFTISRDNAKNSLYLQMNSLRAEDTAVYYCARIDYEDAFDIWGQGTLVTVSS VL: DIQMTQSPSSLSASVGDRVTIACRAGQSIGTYLNWYQQKPGKAPKLLIYVASSLQSGVPSRFSGSGSGTEFTLTISSLQPEDFATYYCQQSASELLTFGRGTKVEIK |  | 34700 | 
7 | ADT1-7-42 (antibody, IgG1, V domains shown, IgG1) VH: EVQLVESGGGLVKPGGSLRLSCAASGFTFSDYYMSWIRQAPGKGLEWVSYISSSGSTIYYADSVKGRFTISRDNAKNSLYLQMNSLRAEDTAVYYCARDDYEDAFDIWGQGTLVTVSS VL: DIQMTQSPSSLSASVGDRVTIACRAGQSIGTYLNWYQQKPGKAPKLLIYVASSLQSGVPSRFSGSGSGTEFTLTISSLQPEDFATYYCQQSSSELLTFGRGTKVEIK |  | 37600 | 
8 | 1245_P01_G06 (antibody, V domains shown, IgG1) VH: QVQLVESGGGLVKPGGSLRLSCAASGFTFSDYYMSWIRQAPGKGLEWVSYISSSGSTIYYADSVKGRFTISRDNAKNSLYLQMNSLRAEDTAVYYCARHSWNDAFDVWGQGTLVTVSS VL: not shown | 22500 fluorescence units |  | 
9 | ADT1-7-15 (antibody, IgG1, V domains shown, IgG1) VH: EVQLVESGGGLVKPGGSLRLSCAASGFTFSDYYMSWIRQAPGKGLEWVSYISSSGSTIYYADSVKGRFTISRDNAKNSLYLQMNSLRAEDTAVYYCARDDYNDAFDIWGQGTLVTVSS VL: DIQMTQSPSSLSASVGDRVTIACRAGQSIGTYLNWYQQKPGKAPKLLIYVASSLQSGVPSRFSGSGSGTEFTLTISSLQPEDFATYYCQQSADTLLTFGRGTKVEIK |  | 30400 | 
10 | ADT1-7-18 (antibody, IgG1, V domains shown, IgG1) VH: EVQLVESGGGLVKPGGSLRLSCAASGFTFSDYYMSWIRQAPGKGLEWVSYISSSGSTIYYADSVKGRFTISRDNAKNSLYLQMNSLRAEDTAVYYCARVSYDDAFDIWGQGTLVTVSS VL: DIQMTQSPSSLSASVGDRVTIACRVGQSIGTYLNWYQQKPGKAPKLLIYVASSLQSGVPSRFSGSGSGTEFTLTISSLQPEDFATYYCQQSASELLTFGRGTKVEIK |  | 34800 | 
11 | ADT1-7-10 (antibody, IgG1, V domains shown, IgG1) VH: EVQLVESGGGLVKPGGSLRLSCAASGFTFSDYYMSWIRQAPGKGLEWVSYISSSGSTIYYADSVKGRFTISRDNAKNSLYLQMNSLRAEDTAVYYCARDDYNDAFDIWGQGTLVTVSS VL: DIQMTQSPSSLSASVGDRVTIACRAGQSIGTYLNWYQQKPGKAPKLLIYVASSLQSGVPSRFSGSGSGTEFTLTISSLQPEDFATYYCQQTASTLLTFGRGTKVEIK |  | 30900 | 
12 | ADT1-7-23 (antibody, IgG1, V domains shown, IgG1) VH: EVQLVESGGGLVKPGGSLRLSCAASGFTFSDYYMSWIRQAPGKGLEWVSYISSSGSTIYYADSVKGRFTISRDNAKNSLYLQMNSLRAEDTAVYYCARVDYNEAFDIWGQGTLVTVSS VL: DIQMTQSPSSLSASVGDRVTIACRAGQSIGTYLNWYQQKPGKAPKLLIYVASSLQSGVPSRFSGSGSGTEFTLTISSLQPEDFATYYCQQSYSGLDTFGRGTKVEIK |  | 34400 | 
13 | ADT1-7-17 (antibody, IgG1, V domains shown, IgG1) VH: EVQLVESGGGLVKPGGSLRLSCAASGFTFSDYYMSWIRQAPGKGLEWVSYISSSGSTIYYADSVKGRFTISRDNAKNSLYLQMNSLRAEDTAVYYCARIDYEDAFDIWGQGTLVTVSS VL: DIQMTQSPSSLSASVGDRVTIACRAGQSIGTYLNWYQQKPGKAPKLLIYVASSLQSGVPSRFSGSGSGTEFTLTISSLQPEDFATYYCQQSGSELLTFGRGTKVEIK |  | 30200 | 
14 | 1141_P01_E01 (antibody, IgG1, V domains shown, IgG1, lambda light chain) VH: QVQLVQSGAEVKKPGESLKISCKGSGYSFTSYWIGWVRQMPGKGLEWMGIIYPGDSDTRYSPSFQGQVTISADKSISTAYLQWSSLKASDTAMYYCARHQVDTRTADYWGQGTLVTVSS VL: SQSALTQPASVSGSPGQSVTISCTGTRSDVGGYNYVSWYQHHPGKAPKLMIYEVSNRPSGVSNRFSGSKSGNTASLTISGLQAEDEADYYCSSYTSTSTLVFGGGTKLTVL | 137000 fluorescence units |  | 
15 | 1139_P01_E04 (antibody, IgG1, V domains shown, IgG1) VH: QVQLQQSGPGLVKPSQTLSLTCAISGDSVSSNSAAWNWIRQSPSRGLEWLGRTYYRSKWYNDYAVSVRSRITINPDTSKNQFSLQLNSVTPEDTAVYYCARSWNDAFDIWGQGTTVTVSS VL: DIVMTQSPSTLSASIGDRVTITCRAGQSISTWLAWYQQKPGKAPKLLIYDASSLESGVPLRFSGSGSGTDFTLTISSLQPEDFATYYCQQSYSTPLTFGGGTKVEIK | 23800 fluorescence units |  | 
16 | 1245_P02_F07 (antibody, IgG1, V domains shown, IgG1) VH: QVQLQQSGPGLVKPSQTLSLTCVISGDSVSSNSAAWNWIRQSPSRGLEWLGRTYYRSKWYNDYAVSVKSRITINPDTSKNQFSLQLNSVTPEDTAVYYCARDYYYSMDVWGQGTMVTVSS VL: DIQMTQSPSTLSASVGDRVTITCRASQSISSWLAWYQQKPGKAPKLLIYDASSLESGVPLRFSGSGSGTEFTLTISSLQPDDFATYYCQQSHSHPPTFGPGTKVDIK | 10400 fluorescence units |  | 
17 | 1245_P01_G09 (antibody, IgG1, V domains shown, IgG1) VH: QVQLQQSGPGLVKPSQTLSLTCAISGDSVSSNSAAWNWIRQSPSRGLEWLGRTYYGSKWYNEYALSVKSRIIINPDTSKNQFSLQLNSVTPEDTAVYYCARDYYYSMDVWGQGTLVTVSS VL: DIVMTQSPSTLSASIGDRVTITCRAGQSISTWLAWYQQKPGKAPKLLIYDASSLESGVPLRFSGSGSGTEFTLAISSLQPDDFATYYCQQSYSTPVTFGQGTKVEIK | 18400 fluorescence units |  | 
18 | 1252_P01_C08 (antibody, IgG1, V domains shown, IgG1, lambda light chain) VH: EVQLLESGGGLVQPGRSLRLSCAASGFTVSSNYMSWVRQAPGKGLEWVSVIYSGGSTYYADSVKGRFTISRDNSKNTLYLQMNSLRAEDTAVYYCASPIELGAFDIWGQGTLVTVSS VL: SSYELTQPPSVSVAPGKTARITCGGNNIGSQSVHWYQQKPGQAPMLVIYYDSDRPSGIPERFSGSNSGNTATLTISRVEAGDEADYYCQVWDSSSDHVVFGGGTKLTVL | 1980 fluorescence units |  | 
